Bridges are numbered along the chain shown (N, C = ends). [ ]: non-standard residue; d: D form. The star is where a group is joined. pGlu = O=C1CC[C@@H](C(=O)O)N1; NHPhenethyl = c1ccc(CCN*)cc1; d(hCys) = N[C@H](CCS)C(=O)O; dNle = CCCC[C@@H](N)C(=O)O; hCys = N[C@@H](CCS)C(=O)O; Nle = CCCC[C@H](N)C(=O)O
T1: human APJ receptor (hAPJ) (human, UniProt P35414 1-380)
T1 sequence (looked up): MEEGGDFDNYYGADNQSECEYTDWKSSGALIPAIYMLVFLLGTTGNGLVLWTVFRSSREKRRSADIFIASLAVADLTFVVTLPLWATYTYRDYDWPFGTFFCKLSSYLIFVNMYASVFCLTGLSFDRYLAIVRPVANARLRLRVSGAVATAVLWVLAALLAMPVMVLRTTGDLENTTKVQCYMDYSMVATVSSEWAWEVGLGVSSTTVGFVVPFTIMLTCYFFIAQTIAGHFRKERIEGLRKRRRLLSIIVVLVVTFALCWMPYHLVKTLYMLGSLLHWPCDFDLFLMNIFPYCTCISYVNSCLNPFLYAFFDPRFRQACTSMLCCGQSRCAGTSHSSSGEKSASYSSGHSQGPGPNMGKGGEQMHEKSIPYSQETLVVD


These binders were tested against T1, human APJ receptor (hAPJ) (assay: cell-based or functional assay).

Binder	hAPJ Ca^2+ Flux EC50 [nM]
Ac-[d(hCys)]RPRLS[d(hCys)]KGP[Nle]PF-OH (disulfide 1-7; SMILES CCCC[C@H](NC(=O)[C@@H]1CCCN1C(=O)CNC(=O)[C@H](CCCCN)NC(=O)[C@H]1CCSSCC[C@@H](NC(C)=O)C(=O)N[C@@H](CCCNC(=N)N)C(=O)N2CCC[C@H]2C(=O)N[C@@H](CCCNC(=N)N)C(=O)N[C@@H](CC(C)C)C(=O)N[C@@H](CO)C(=O)N1)C(=O)N1CCC[C@H]1C(=O)N[C@@H](Cc1ccccc1)C(=O)O) [Ac-(D-hC)*-R-P-R-L-S-(D-hC)*-K-G-P-Nle-P-F-OH]	410
Ac-CRPRLS[dC]KGP[Nle]PF-OH (disulfide 1-7; SMILES CCCC[C@H](NC(=O)[C@@H]1CCCN1C(=O)CNC(=O)[C@H](CCCCN)NC(=O)[C@H]1CSSC[C@H](NC(C)=O)C(=O)N[C@@H](CCCNC(=N)N)C(=O)N2CCC[C@H]2C(=O)N[C@@H](CCCNC(=N)N)C(=O)N[C@@H](CC(C)C)C(=O)N[C@@H](CO)C(=O)N1)C(=O)N1CCC[C@H]1C(=O)N[C@@H](Cc1ccccc1)C(=O)O) [Ac-C*-R-P-R-L-S-c*-K-G-P-Nle-P-F-OH]	194
[pGlu]RCRLSCKGP[Nle]PF-OH (disulfide 3-7; SMILES CCCC[C@H](NC(=O)[C@@H]1CCCN1C(=O)CNC(=O)[C@H](CCCCN)NC(=O)[C@@H]1CSSC[C@H](NC(=O)[C@H](CCCNC(=N)N)NC(=O)[C@@H]2CCC(=O)N2)C(=O)N[C@@H](CCCNC(=N)N)C(=O)N[C@@H](CC(C)C)C(=O)N[C@@H](CO)C(=O)N1)C(=O)N1CCC[C@H]1C(=O)N[C@@H](Cc1ccccc1)C(=O)O) [pE-R-C*-R-L-S-C*-K-G-P-Nle-P-F-OH]	1
Ac-[dC]RPRLS[hCys]KGP[dNle][dA][dF]-OH (not fully specified; printed as Ac-c-R-P-R-L-S-(hC)-K-G-P-(D-Nle)-a-f-OH; cysteine pairing not given here) [Ac-c-R-P-R-L-S-(hC)-K-G-P-(D-Nle)-a-f-OH]	79.3
Ac-[d(hCys)]RPRLS[hCys]KGP[Nle]PF-OH (disulfide 1-7; SMILES CCCC[C@H](NC(=O)[C@@H]1CCCN1C(=O)CNC(=O)[C@H](CCCCN)NC(=O)[C@@H]1CCSSCC[C@@H](NC(C)=O)C(=O)N[C@@H](CCCNC(=N)N)C(=O)N2CCC[C@H]2C(=O)N[C@@H](CCCNC(=N)N)C(=O)N[C@@H](CC(C)C)C(=O)N[C@@H](CO)C(=O)N1)C(=O)N1CCC[C@H]1C(=O)N[C@@H](Cc1ccccc1)C(=O)O) [Ac-(D-hC)*-R-P-R-L-S-hC*-K-G-P-Nle-P-F-OH]	14.1
Ac-CRPRLSCKGP[Nle]P[dF]-OH (disulfide 1-7; SMILES CCCC[C@H](NC(=O)[C@@H]1CCCN1C(=O)CNC(=O)[C@H](CCCCN)NC(=O)[C@@H]1CSSC[C@H](NC(C)=O)C(=O)N[C@@H](CCCNC(=N)N)C(=O)N2CCC[C@H]2C(=O)N[C@@H](CCCNC(=N)N)C(=O)N[C@@H](CC(C)C)C(=O)N[C@@H](CO)C(=O)N1)C(=O)N1CCC[C@H]1C(=O)N[C@H](Cc1ccccc1)C(=O)O) [Ac-C*-R-P-R-L-S-C*-K-G-P-Nle-P-f-OH]	46.9

Other lines, results leading:

hAPJ Ca^2+ Flux EC50 [nM]	Binder
32.2	Ac-CRPRLSCKGP[Nle]-NHPhenethyl (disulfide 1-7; SMILES CCCC[C@H](NC(=O)[C@@H]1CCCN1C(=O)CNC(=O)[C@H](CCCCN)NC(=O)[C@@H]1CSSC[C@H](NC(C)=O)C(=O)N[C@@H](CCCNC(=N)N)C(=O)N2CCC[C@H]2C(=O)N[C@@H](CCCNC(=N)N)C(=O)N[C@@H](CC(C)C)C(=O)N[C@@H](CO)C(=O)N1)C(=O)NCCc1ccccc1) [Ac-C*-R-P-R-L-S-C*-K-G-P-Nle-NH(Phenethyl)]
174	Ac-[d(hCys)]RPRLS[hCys]KGP[dF][dA][dF]-OH (disulfide 1-7; SMILES CC(=O)N[C@@H]1CCSSCC[C@@H](C(=O)N[C@@H](CCCCN)C(=O)NCC(=O)N2CCC[C@H]2C(=O)N[C@H](Cc2ccccc2)C(=O)N[C@H](C)C(=O)N[C@H](Cc2ccccc2)C(=O)O)NC(=O)[C@H](CO)NC(=O)[C@H](CC(C)C)NC(=O)[C@H](CCCNC(=N)N)NC(=O)[C@@H]2CCCN2C(=O)[C@H](CCCNC(=N)N)NC1=O) [Ac-(D-hC)*-R-P-R-L-S-(hC)*-K-G-P-f-a-f-OH]
48.7	Ac-[dC]RPRLS[dC]KGP[Nle]PF-OH (disulfide 1-7; SMILES CCCC[C@H](NC(=O)[C@@H]1CCCN1C(=O)CNC(=O)[C@H](CCCCN)NC(=O)[C@H]1CSSC[C@@H](NC(C)=O)C(=O)N[C@@H](CCCNC(=N)N)C(=O)N2CCC[C@H]2C(=O)N[C@@H](CCCNC(=N)N)C(=O)N[C@@H](CC(C)C)C(=O)N[C@@H](CO)C(=O)N1)C(=O)N1CCC[C@H]1C(=O)N[C@@H](Cc1ccccc1)C(=O)O) [Ac-c*-R-P-R-L-S-c*-K-G-P-Nle-P-F-OH]
21.4	Ac-[dC]RPRLSCKGP[Nle]PF-OH (disulfide 1-7; SMILES CCCC[C@H](NC(=O)[C@@H]1CCCN1C(=O)CNC(=O)[C@H](CCCCN)NC(=O)[C@@H]1CSSC[C@@H](NC(C)=O)C(=O)N[C@@H](CCCNC(=N)N)C(=O)N2CCC[C@H]2C(=O)N[C@@H](CCCNC(=N)N)C(=O)N[C@@H](CC(C)C)C(=O)N[C@@H](CO)C(=O)N1)C(=O)N1CCC[C@H]1C(=O)N[C@@H](Cc1ccccc1)C(=O)O) [Ac-c*-R-P-R-L-S-C*-K-G-P-Nle-P-F-OH]
2.9	[pGlu]RCRLSCKGP[dNle][dA][dF]-OH (disulfide 3-7; SMILES CCCC[C@@H](NC(=O)[C@@H]1CCCN1C(=O)CNC(=O)[C@H](CCCCN)NC(=O)[C@@H]1CSSC[C@H](NC(=O)[C@H](CCCNC(=N)N)NC(=O)[C@@H]2CCC(=O)N2)C(=O)N[C@@H](CCCNC(=N)N)C(=O)N[C@@H](CC(C)C)C(=O)N[C@@H](CO)C(=O)N1)C(=O)N[C@H](C)C(=O)N[C@H](Cc1ccccc1)C(=O)O) [pE-R-C*-R-L-S-C*-K-G-P-(D-Nle)-a-f-OH]
12.2	Ac-[dC]RPRLS[hCys]KGP[Nle]PF-OH (disulfide 1-7; SMILES CCCC[C@H](NC(=O)[C@@H]1CCCN1C(=O)CNC(=O)[C@H](CCCCN)NC(=O)[C@@H]1CCSSC[C@@H](NC(C)=O)C(=O)N[C@@H](CCCNC(=N)N)C(=O)N2CCC[C@H]2C(=O)N[C@@H](CCCNC(=N)N)C(=O)N[C@@H](CC(C)C)C(=O)N[C@@H](CO)C(=O)N1)C(=O)N1CCC[C@H]1C(=O)N[C@@H](Cc1ccccc1)C(=O)O) [Ac-c*-R-P-R-L-S-hC*-K-G-P-Nle-P-F-OH]
3.2	Ac-CRPRLSCKGP[Nle]P-NHPhenethyl (disulfide 1-7) [Ac-C*-R-P-R-L-S-C*-K-G-P-Nle-P-NH(Phenethyl)]
9.4	Ac-CRPRLSCKGP[Nle]PF-OH (disulfide 1-7; SMILES CCCC[C@H](NC(=O)[C@@H]1CCCN1C(=O)CNC(=O)[C@H](CCCCN)NC(=O)[C@@H]1CSSC[C@H](NC(C)=O)C(=O)N[C@@H](CCCNC(=N)N)C(=O)N2CCC[C@H]2C(=O)N[C@@H](CCCNC(=N)N)C(=O)N[C@@H](CC(C)C)C(=O)N[C@@H](CO)C(=O)N1)C(=O)N1CCC[C@H]1C(=O)N[C@@H](Cc1ccccc1)C(=O)O) [Ac-C*-R-P-R-L-S-C*-K-G-P-Nle-P-F-OH]
